# Data as given in article PMC10850970, “Characterization of N-glycosylation and its functional role in SIDT1-Mediated RNA uptake”.
# T1: SIDT1 ECD (Homo sapiens, UniProt Q9NXL6 23-310)
# T1 sequence: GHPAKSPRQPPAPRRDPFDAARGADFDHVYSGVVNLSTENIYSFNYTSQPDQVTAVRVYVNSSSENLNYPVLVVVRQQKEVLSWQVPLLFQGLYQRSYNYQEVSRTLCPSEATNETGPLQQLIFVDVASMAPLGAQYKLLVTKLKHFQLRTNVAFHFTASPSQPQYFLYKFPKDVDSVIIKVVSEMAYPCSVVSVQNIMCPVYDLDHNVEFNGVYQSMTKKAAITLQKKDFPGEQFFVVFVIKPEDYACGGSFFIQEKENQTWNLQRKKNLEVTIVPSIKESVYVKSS
# T2: SIDT1 ECD-Fc (Homo sapiens, UniProt Q9NXL6 23-310)
# T2 sequence: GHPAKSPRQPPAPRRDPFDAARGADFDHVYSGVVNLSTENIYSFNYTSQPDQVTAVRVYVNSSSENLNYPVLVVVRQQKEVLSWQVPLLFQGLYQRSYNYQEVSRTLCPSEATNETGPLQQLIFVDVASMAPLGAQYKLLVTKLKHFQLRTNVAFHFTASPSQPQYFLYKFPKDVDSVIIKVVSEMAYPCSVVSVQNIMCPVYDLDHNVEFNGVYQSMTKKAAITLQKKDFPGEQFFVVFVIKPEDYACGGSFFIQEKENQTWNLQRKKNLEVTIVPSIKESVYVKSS
# B1: FAM-ssRNA 21 nt (ssRNA)
# RNA: UCGCUUGGUGCAGAUCGGGAC
# B2: SIDT1: PNGase F (protein)
# parent chain: MRGCLRLALLCALPWLLLAASPGHPAKSPRQPPAPRRDPFDAARGADFDHVYSGVVNLSTENIYSFNYTSQPDQVTAVRVYVNSSSENLNYPVLVVVRQQKEVLSWQVPLLFQGLYQRSYNYQEVSRTLCPSEATNETGPLQQLIFVDVASMAPLGAQYKLLVTKLKHFQLRTNVAFHFTASPSQPQYFLYKFPKDVDSVIIKVVSEMAYPCSVVSVQNIMCPVYDLDHNVEFNGVYQSMTKKAAITLQKKDFPGEQFFVVFVIKPEDYACGGSFFIQEKENQTWNLQRKKNLEVTIVPSIKESVYVKSSLFSVFIFLSFYLGCLLVGFVHYLRFQRKSIDGSFGSNDGSGNMVASHPIAASTPEGSNYGTIDESSSSPGRQMSSSDGGPPGQSDTDSSVEESDFDTMPDIESDKNIIRTKMFLYLSDLSRKDRRIVSKKYKIYFWNIITIAVFYALPVIQLVITYQTVVNVTGNQDICYYNFLCAHPLGVLSAFNNILSNLGHVLLGFLFLLIVLRRDILHRRALEAKDIFAVEYGIPKHFGLFYAMGIALMMEGVLSACYHVCPNYSNFQFDTSFMYMIAGLCMLKLYQTRHPDINASAYSAYASFAVVIMVTVLGVVFGKNDVWFWVIFSAIHVLASLALSTQIYYMGRFKIDLGIFRRAAMVFYTDCIQQCSRPLYMDRMVLLVVGNLVNWSFALFGLIYRPRDFASYMLGIFICNLLLYLAFYIIMKLRSSEKVLPVPLFCIVATAVMWAAALYFFFQNLSSWEGTPAESREKNRECILLDFFDDHDIWHFLSATALFFSFLVLLTLDDDLDVVRRDQIPVF
# B3: SIDT1: kifunensine, pH 5.5 (protein)
# parent chain: MRGCLRLALLCALPWLLLAASPGHPAKSPRQPPAPRRDPFDAARGADFDHVYSGVVNLSTENIYSFNYTSQPDQVTAVRVYVNSSSENLNYPVLVVVRQQKEVLSWQVPLLFQGLYQRSYNYQEVSRTLCPSEATNETGPLQQLIFVDVASMAPLGAQYKLLVTKLKHFQLRTNVAFHFTASPSQPQYFLYKFPKDVDSVIIKVVSEMAYPCSVVSVQNIMCPVYDLDHNVEFNGVYQSMTKKAAITLQKKDFPGEQFFVVFVIKPEDYACGGSFFIQEKENQTWNLQRKKNLEVTIVPSIKESVYVKSSLFSVFIFLSFYLGCLLVGFVHYLRFQRKSIDGSFGSNDGSGNMVASHPIAASTPEGSNYGTIDESSSSPGRQMSSSDGGPPGQSDTDSSVEESDFDTMPDIESDKNIIRTKMFLYLSDLSRKDRRIVSKKYKIYFWNIITIAVFYALPVIQLVITYQTVVNVTGNQDICYYNFLCAHPLGVLSAFNNILSNLGHVLLGFLFLLIVLRRDILHRRALEAKDIFAVEYGIPKHFGLFYAMGIALMMEGVLSACYHVCPNYSNFQFDTSFMYMIAGLCMLKLYQTRHPDINASAYSAYASFAVVIMVTVLGVVFGKNDVWFWVIFSAIHVLASLALSTQIYYMGRFKIDLGIFRRAAMVFYTDCIQQCSRPLYMDRMVLLVVGNLVNWSFALFGLIYRPRDFASYMLGIFICNLLLYLAFYIIMKLRSSEKVLPVPLFCIVATAVMWAAALYFFFQNLSSWEGTPAESREKNRECILLDFFDDHDIWHFLSATALFFSFLVLLTLDDDLDVVRRDQIPVF
# B4: SIDT1: kifunensine, pH 3.5 (protein)
# parent chain: MRGCLRLALLCALPWLLLAASPGHPAKSPRQPPAPRRDPFDAARGADFDHVYSGVVNLSTENIYSFNYTSQPDQVTAVRVYVNSSSENLNYPVLVVVRQQKEVLSWQVPLLFQGLYQRSYNYQEVSRTLCPSEATNETGPLQQLIFVDVASMAPLGAQYKLLVTKLKHFQLRTNVAFHFTASPSQPQYFLYKFPKDVDSVIIKVVSEMAYPCSVVSVQNIMCPVYDLDHNVEFNGVYQSMTKKAAITLQKKDFPGEQFFVVFVIKPEDYACGGSFFIQEKENQTWNLQRKKNLEVTIVPSIKESVYVKSSLFSVFIFLSFYLGCLLVGFVHYLRFQRKSIDGSFGSNDGSGNMVASHPIAASTPEGSNYGTIDESSSSPGRQMSSSDGGPPGQSDTDSSVEESDFDTMPDIESDKNIIRTKMFLYLSDLSRKDRRIVSKKYKIYFWNIITIAVFYALPVIQLVITYQTVVNVTGNQDICYYNFLCAHPLGVLSAFNNILSNLGHVLLGFLFLLIVLRRDILHRRALEAKDIFAVEYGIPKHFGLFYAMGIALMMEGVLSACYHVCPNYSNFQFDTSFMYMIAGLCMLKLYQTRHPDINASAYSAYASFAVVIMVTVLGVVFGKNDVWFWVIFSAIHVLASLALSTQIYYMGRFKIDLGIFRRAAMVFYTDCIQQCSRPLYMDRMVLLVVGNLVNWSFALFGLIYRPRDFASYMLGIFICNLLLYLAFYIIMKLRSSEKVLPVPLFCIVATAVMWAAALYFFFQNLSSWEGTPAESREKNRECILLDFFDDHDIWHFLSATALFFSFLVLLTLDDDLDVVRRDQIPVF
# B5: SIDT1: kifunensine (protein)
# parent chain: MRGCLRLALLCALPWLLLAASPGHPAKSPRQPPAPRRDPFDAARGADFDHVYSGVVNLSTENIYSFNYTSQPDQVTAVRVYVNSSSENLNYPVLVVVRQQKEVLSWQVPLLFQGLYQRSYNYQEVSRTLCPSEATNETGPLQQLIFVDVASMAPLGAQYKLLVTKLKHFQLRTNVAFHFTASPSQPQYFLYKFPKDVDSVIIKVVSEMAYPCSVVSVQNIMCPVYDLDHNVEFNGVYQSMTKKAAITLQKKDFPGEQFFVVFVIKPEDYACGGSFFIQEKENQTWNLQRKKNLEVTIVPSIKESVYVKSSLFSVFIFLSFYLGCLLVGFVHYLRFQRKSIDGSFGSNDGSGNMVASHPIAASTPEGSNYGTIDESSSSPGRQMSSSDGGPPGQSDTDSSVEESDFDTMPDIESDKNIIRTKMFLYLSDLSRKDRRIVSKKYKIYFWNIITIAVFYALPVIQLVITYQTVVNVTGNQDICYYNFLCAHPLGVLSAFNNILSNLGHVLLGFLFLLIVLRRDILHRRALEAKDIFAVEYGIPKHFGLFYAMGIALMMEGVLSACYHVCPNYSNFQFDTSFMYMIAGLCMLKLYQTRHPDINASAYSAYASFAVVIMVTVLGVVFGKNDVWFWVIFSAIHVLASLALSTQIYYMGRFKIDLGIFRRAAMVFYTDCIQQCSRPLYMDRMVLLVVGNLVNWSFALFGLIYRPRDFASYMLGIFICNLLLYLAFYIIMKLRSSEKVLPVPLFCIVATAVMWAAALYFFFQNLSSWEGTPAESREKNRECILLDFFDDHDIWHFLSATALFFSFLVLLTLDDDLDVVRRDQIPVF
# Key:
# [1] = biological target: T1, SIDT1 ECD; assay: EMSA; pH 5.5; EMSA: 40 mM Tris-acetate pH 5.5, 100 mM NaCl, 2.5 mM EDTA, 5% glycerol, RT 30 min, 2.5 uM RNA; MST: 25 mM MES pH 5.5, 100 mM NaCl, 0.05% Tween-20, 25 C, 5 nM labeled protein; settings: protein: recombinant; C-terminal 6xHis; label: 5'-FAM; single strand
# [2] = biological target: T2, SIDT1 ECD-Fc; assay: EMSA; pH 5.5; legend says FAM-labeled RNA; EMSA: 40 mM Tris-acetate pH 5.5, 100 mM NaCl, 2.5 mM EDTA, 5% glycerol, RT 30 min, 2.5 uM RNA; MST: 25 mM MES pH 5.5, 100 mM NaCl, 0.05% Tween-20, 25 C, 5 nM labeled protein; settings: protein: recombinant; tags: C-terminal Fc; chain copies: 2; label: 5'-FAM; single strand
# [3] = Amplex Red phospholipase assay; settings: glycan lost; control: untreated full-length SIDT1
# [4] = precipitation after deglycosylation; settings: glycan lost; control: untreated purified SIDT1ECD
# [5] = differential scanning fluorometry (Tycho); settings: glycan changed form; control: SIDT1ECD expressed without kifunensine, same pH
# [6] = 0-4 h incubation at pH 3.5, SDS-PAGE; settings: glycan changed form; control: SIDT1ECD expressed without kifunensine
binder,measurement,setting,value
B1,binding result,[1],binds
same,binding result,[2],binds
B2,enzymatic_activity,[3],no change
same,stability_or_folding,[4],decreases
B3,"stability_or_folding, Tm",[5],"decreases, decrease of 1.7 vs 55.1 (pH 7.5), 60.5 (pH 5.5), 61.1 (pH 3.5)"
B4,"stability_or_folding, Tm",[5],"decreases, decrease of 5.4 vs 55.1 (pH 7.5), 60.5 (pH 5.5), 61.1 (pH 3.5)"
B5,degradation_or_half_life,[6],increases
